Reference: paper PMC4873334 (Neuron, 2016)

Columns and labels:
[1] = target: Pcdhα7 EC1-5 (Mus musculus) (UniProt Q91Y13); settings: cited from earlier work
AUC = target: the molecule itself; experiment: AUC

Pcdhα7 EC1-5, sequence (Q91Y13 whole entry, looked up): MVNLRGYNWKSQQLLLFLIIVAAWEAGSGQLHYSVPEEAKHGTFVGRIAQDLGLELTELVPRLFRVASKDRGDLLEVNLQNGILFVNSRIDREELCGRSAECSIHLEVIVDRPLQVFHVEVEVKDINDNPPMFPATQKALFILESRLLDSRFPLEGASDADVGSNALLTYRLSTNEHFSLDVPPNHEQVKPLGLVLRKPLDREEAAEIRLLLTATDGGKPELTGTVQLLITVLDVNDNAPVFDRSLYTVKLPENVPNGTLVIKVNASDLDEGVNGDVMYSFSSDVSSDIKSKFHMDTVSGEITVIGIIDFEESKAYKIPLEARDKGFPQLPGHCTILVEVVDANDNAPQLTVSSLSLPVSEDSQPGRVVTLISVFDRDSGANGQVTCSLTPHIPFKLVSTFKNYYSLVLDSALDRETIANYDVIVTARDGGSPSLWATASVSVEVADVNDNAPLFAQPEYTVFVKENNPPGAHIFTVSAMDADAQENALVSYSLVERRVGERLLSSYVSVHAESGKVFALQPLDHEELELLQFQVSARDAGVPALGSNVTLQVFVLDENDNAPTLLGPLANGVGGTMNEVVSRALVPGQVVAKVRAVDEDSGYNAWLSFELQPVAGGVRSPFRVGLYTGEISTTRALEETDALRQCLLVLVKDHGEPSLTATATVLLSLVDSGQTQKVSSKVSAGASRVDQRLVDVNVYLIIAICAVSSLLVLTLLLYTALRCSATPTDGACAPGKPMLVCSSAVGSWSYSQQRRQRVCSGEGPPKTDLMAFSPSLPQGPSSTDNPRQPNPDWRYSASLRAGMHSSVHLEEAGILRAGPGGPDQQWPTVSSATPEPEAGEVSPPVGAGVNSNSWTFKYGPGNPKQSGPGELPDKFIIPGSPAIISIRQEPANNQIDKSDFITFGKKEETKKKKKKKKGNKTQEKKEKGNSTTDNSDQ

Row | Molecule | Kd [1] | Kd (AUC) | stoichiometry N (AUC)
1 | Pcdhα7 EC1-5 (from UniProt Q91Y13) | 2.91 µM | – | –
2 | Pcdh β8 EC1–4 (mouse clustered protocadherin β8, extracellular cadherin domains 1–4) (domain or fragment, N- and O-linked glycans; O-mannose at positions 194 and 196 (α7 numbering) of EC2 and on T199) EAISYSMPEETESGYLVANLAQDLGLRVGELTTRGARIHHNGNKELLQLDAERGNLLLKEKPDREALCGATEPCVLHFQIILENPVQFFQTDLQFTDINDHFPEFPDTEMLLKIQEIAQPGTVFPLKAAQDPDIGSNAVQNYTVSPNLHFHVVTLSRSDDRKYPELVLDRALDREEQPELTLILTALDGGAPPKSGTTTVRIEVVDINDNAPQFLQSLYAVEVPENSPLNALVVTVSARDLDAGIHGNVAYSLFQGGGGPQPFVIDEITGEIRLKGALDFEATSYYTMEIVATDSGGLSGKCTVAIQVLDVNDNAPKLTISSLTSSIPENAPEAVVAVFSVSDPDSGDNGRMVCSIQNGLPFLLKPTFKNFYTLVTERPLDRESNAEYNITITVSDLGTPRLTTQHTITVQVSDINDN | – | 24 ± 0.43 µM | 2
3 | Pcdh β6 EC1–4 (mouse clustered protocadherin β6, extracellular cadherin domains 1–4) (domain or fragment, N- and O-linked glycans; O-mannose at positions 194 and 196 (α7 numbering) of EC2) EAIRYSIPEETESGYLVAHLAKDLGFRVGELATRRARIHHRGNKELLQLDVETGNLLLKEKPDREALCGATEPCVLHFQIILENPVQFFQTELQLTDINDHSPEFPDTEMLLKIQESTQPATVFLLKAAQDSDIGSNAVQNYTVSPNLHFHVVTLSRSDGRKYPELVLDRALDREEQPELTLILTALDGGAPPKSGTTTVRIEVVDINDNAPEFVQSLYSVEVPENSPLDALVVTVSARDLDAGIHGNVAYSLFQGGGGPQPFVIDEITGEIRLKGALDFEATSYYTMEIVATDSGGLSGKCTVAIQVLDVNDNAPKLTISSLTSSIPENAPEAVVAVFSVSDPDSGDNGRMVCSIQNELPFLLKPTFENYYTLAAEGPLDREIREEYNITIIVSDLGTPRLTTQHTITVQVVDIND | – | 16.3 ± 2.08 µM | 2
4 | Pcdh α7 EC1–5 (mouse clustered protocadherin α7, extracellular cadherin domains 1–5) (domain or fragment, N- and O-linked glycans; O-mannose at positions 194 and 196 (EC2), T409 (EC4) and S449 (EC5)) QLHYSVPEEAKHGTFVGRIAQDLGLELTELVPRLFRVASKDRGDLLEVNLQNGILFVNSRIDREELCGRSAECSIHLEVIVDRPLQVFHVEVEVKDINDNPPMFPATQKALFILESRLLDSRFPLEGASDADVGSNALLTYRLSTNEHFSLDVPPNHEQVKPLGLVLRKPLDREEAAEIRLLLTATDGGKPELTGTVQLLITVLDVNDNAPVFDRSLYTVKLPENVPNGTLVIKVNASDLDEGVNGDVMYSFSSDVSSDIKSKFHMDTVSGEITVIGIIDFEESKAYKIPLEARDKGFPQLPGHCTILVEVVDANDNAPQLTVSSLSLPVSEDSQPGRVVTLISVFDRDSGANGQVTCSLTPHIPFKLVSTFKNYYSLVLDSALDRETIANYDVIVTARDGGSPSLWATASVSVEVADVNDNAPLFAQPEYTVFVKENNPPGAHIFTVSAMDADAQENALVSYSLVERRVGERLLSSYVSVHAESGKVFALQPLDHEELELLQFQVSARDAGVPALGSNVTLQVFVLDEND | – | – | 2
5 | Pcdh α4 EC1–4 (mouse clustered protocadherin α4, extracellular cadherin domains 1–4) (domain or fragment, N- and O-linked glycans; O-mannose on T409, S411 and S413 (EC4)) QIHYSIPEEAKHGTFVGRIAQDLGLELTELVPRLFRVASKDRGDLLEVNLQNGILFVNSRIDREELCGRSAECSIHLEVIVDRPLQVFHVEVEVRDINDNPPRFPTTQKNLFIAESRPLDTWFPLEGASDADIGINAVLTYRLSPNDYFSLEKPSNDERVKGLGLVLRKSLDREETPEIILVLTVTDGGKPELTGSVQLLITVLDANDNAPVFDRSLYTVKLPENVPNGTLVVKVNASDLDEGVNGDIMYSFSTDISPNVKYKFHIDPVSGEIIVKGYIDFEECKSYEILIEGIDKGQLPLSGHCKVIVQVEDINDNVPELEFKSLSLPIRENSPVGTVIALISVSDRDTGVNGQVTCSLTSHVPFKLVSTFKNYYSLVLDSALDRETTADYKVVVTARDGGSPSLWATASVSVEVADVND | – | 0.037 ± 0.0082 µM | 2
